Residue numbers refer to the chain shown, from its start. Where two headings read alike, the source gives them in different places.
How the values were obtained:
[1] = target: T1, CD30 on CD30-expressing tumor cell lines (HH, MJ, H9) (UniProt P28908 19-595); experiment: cell-based or functional assay
T1 sequence (looked up): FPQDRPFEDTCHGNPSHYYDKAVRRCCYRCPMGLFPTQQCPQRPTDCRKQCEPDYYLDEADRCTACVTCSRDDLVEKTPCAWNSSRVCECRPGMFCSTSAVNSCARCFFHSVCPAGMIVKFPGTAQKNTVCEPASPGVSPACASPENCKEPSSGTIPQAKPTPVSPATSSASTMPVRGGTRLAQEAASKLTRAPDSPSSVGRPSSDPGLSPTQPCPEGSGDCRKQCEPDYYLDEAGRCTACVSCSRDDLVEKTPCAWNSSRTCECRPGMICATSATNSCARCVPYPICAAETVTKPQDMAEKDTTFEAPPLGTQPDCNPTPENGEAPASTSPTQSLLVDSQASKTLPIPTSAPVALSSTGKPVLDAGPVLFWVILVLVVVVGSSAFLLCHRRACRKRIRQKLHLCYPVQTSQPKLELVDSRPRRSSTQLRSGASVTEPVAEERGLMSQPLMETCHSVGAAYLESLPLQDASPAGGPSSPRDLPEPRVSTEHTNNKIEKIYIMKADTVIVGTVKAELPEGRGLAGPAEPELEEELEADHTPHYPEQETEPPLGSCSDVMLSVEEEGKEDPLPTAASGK

[2] = target: T1, CD30 on CD30-expressing tumor cell …; experiment: cell-based or functional assay; remark: listed apart in the source
[3] = target: T1, CD30 on CD30-expressing tumor cell …; experiment: cell-based or functional assay; remark: listed apart in the source
rhesus CD30 ECD = target: T2, rhesus CD30 ECD (rhesus, UniProt P28908 19-379 (human entry)); experiment: ELISA on rhesus CD30 ECD protein; member of the group by paragraph 437
T2 construct: Produced in house; also called recombinant rhesus CD30; rhesus CD30 protein
T2 chain: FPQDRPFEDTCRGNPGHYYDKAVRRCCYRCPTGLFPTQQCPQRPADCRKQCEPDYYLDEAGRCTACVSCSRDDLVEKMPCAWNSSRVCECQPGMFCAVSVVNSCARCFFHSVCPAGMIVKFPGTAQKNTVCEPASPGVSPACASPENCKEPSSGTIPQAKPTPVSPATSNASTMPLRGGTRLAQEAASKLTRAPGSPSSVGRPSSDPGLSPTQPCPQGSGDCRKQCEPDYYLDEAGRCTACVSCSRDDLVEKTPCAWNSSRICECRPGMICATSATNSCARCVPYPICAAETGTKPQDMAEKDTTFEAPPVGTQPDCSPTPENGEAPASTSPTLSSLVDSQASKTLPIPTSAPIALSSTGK

[4] = target: T3, recombinant human CD30 extra cellular domain (ECD) protein (human, UniProt P28908 19-379); experiment: SPR Biacore T200, His-tagged sdAb/Fab captured, 100.0 nM human CD30 as analyte, single curve
T3 construct: Bought from R&D systems; also called rhCD30; human CD30 ECD
T3 sequence: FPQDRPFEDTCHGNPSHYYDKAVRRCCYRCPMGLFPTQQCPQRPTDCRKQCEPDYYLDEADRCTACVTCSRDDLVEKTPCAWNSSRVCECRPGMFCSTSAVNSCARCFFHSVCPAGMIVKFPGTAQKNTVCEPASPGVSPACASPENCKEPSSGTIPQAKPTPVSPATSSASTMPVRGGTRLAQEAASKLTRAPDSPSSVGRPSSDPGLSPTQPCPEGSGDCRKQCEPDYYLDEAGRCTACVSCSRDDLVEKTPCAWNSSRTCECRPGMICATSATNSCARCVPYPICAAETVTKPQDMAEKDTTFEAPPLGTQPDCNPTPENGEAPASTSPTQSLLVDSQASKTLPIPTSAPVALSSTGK
Experimental: Some of these unique binders were subjected to for further characterization by surface plasmon resonance (SPR) on a BIAcore T200 instrument (GE Healthcare). The experiment was carried out as follows. The crude sdAb/Fab proteins were captured through an affinity tag (6×Histidine tag) onto the sensorchip. High-concentration (100.0 nM) of human CD30 (R&D systems, Cat. #6126-CD) flowed over the sensorchip surface, and were allowed to bind the antibody fragments for 300 s followed by injection of the running buffer to allow dissociation of the complex. On-rate ([…] and off-rate (kd) were roughly calculated based on one association and dissociation curve, and were used to estimate the equilibrium dissociation constant (KD). 5F11 scFv (SEQ ID NO:216, prepared according to WO2017066122) was used as a positive control. Data were summarized in Table 3 below. The first 10 antibodies in Table 3 were sdAbs with amino acid sequence ID numbers summarized in Table 1, the last antibody was 5F11 scFv, and the remainings were human Fabs with CDR and scFv amino acid sequence ID numbers in Table 2.

[5] = target: T1, CD30 on CD30-expressing tumor cell …; experiment: cell-based or functional assay; remark: listed apart in the source

B1: AS48542VH5bbz CAR (other)
chain: EVQLVESGGGLVQPGGSLRLSCATSAFTFDGPDMAWYRQAPGKGCELVSIISADGRTYYADSVKGRFTISRDNSKNTVYLQMNSLRAEDTAVYYCALDPRKNCRGGYCCANWGQGTLVTVSSTTTPAPRPPTPAPTIASQPLSLRPEACRPAAGGAVHTRGLDFACDIYIWAPLAGTCGVLLLSLVITLYCKRGRKKLLYIFKQPFMRPVQTTQEEDGCSCRFPEEEEGGCELRVKFSRSADAPAYKQGQNQLYNELNLGRREEYDVLDKRRGRDPEMGGKPRRKNPQEGLYNELQKDKMAEAYSEIGMKGERRRGKGHDGLYQGLSTATKDTYDALHMQALPPR
- % H9 cell lysis E:T = 0.2:1 (FACS method, CAR T cells) [1]: 38%
- % MJ cell lysis E:T = 0.2:1 (FACS method, CAR T cells) [1]: 58.6%
- % H9 cell lysis E:T = 2:1 (LDH assay, CAR T cells) [2]: 62%
- % MJ cell lysis E:T = 1:1 (LDH assay, CAR T cells) [2]: 65%
- % H9 cell lysis E:T = 2:1 (LDH assay, CAR T cells) [3]: 62%
- % MJ cell lysis E:T = 1:1 (LDH assay, CAR T cells) [3]: 65%

B2: AS47863VH4bbz CAR (other)
chain: EVQLVESGGGLVQPGGSLRLSCAASGSTFGDSDMGWYRQAPGKGCELVSIISSDGRTYYVDSVKGRFTISQDNSKNTLYLQMNSLRAEDTAVYYCAADLRQYCRDGRCCGYWGQGTLVTVSSTTTPAPRPPTPAPTIASQPLSLRPEACRPAAGGAVHTRGLDFACDIYIWAPLAGTCGVLLLSLVITLYCKRGRKKLLYIFKQPFMRPVQTTQEEDGCSCRFPEEEEGGCELRVKFSRSADAPAYKQGQNQLYNELNLGRREEYDVLDKRRGRDPEMGGKPRRKNPQEGLYNELQKDKMAEAYSEIGMKGERRRGKGHDGLYQGLSTATKDTYDALHMQALPPR
- % H9 cell lysis E:T = 2:1 (LDH assay, CAR T cells) [2]: 63%
- % MJ cell lysis E:T = 1:1 (LDH assay, CAR T cells) [2]: 57%

B3: AS48481 sdAb (VHH)
VHH: EVQLVASGGGSVQAGETLRLSCTASGFTFADSAMGWYRKGPGNVCDLVAIIRTDGTTYYGDSAKGRFTISRDNAKSTLYLQMNSLKPEDTAVYFCAADRETSFIGGSWCVAKYWDQGTQVTVSS
notes: Camel sdAb
- binding result (rhesus CD30 ECD): binds
- Kd [4]: 95 nM
- koff [4]: 0.0081 s⁻¹
- kon [4]: 86000 M⁻¹ s⁻¹
- rhCD30 Binding (RU) [4]: 26.3 RU

B4: AS53445bbz CAR (other)
chain: QVQLVESGGGSVQAGGSLRLSCTASGYIFCMGWFRQAPGKAREGIATIYTGGDSTYYDDSVKGRFTISRDNAKNTVYLQMNSLKPEDTAMYYCAAGGQECYLTNWVSYWGQGTQVTVSSTTTPAPRPPTPAPTIASQPLSLRPEACRPAAGGAVHTRGLDFACDIYIWAPLAGTCGVLLLSLVITLYCKRGRKKLLYIFKQPFMRPVQTTQEEDGCSCRFPEEEEGGCELRVKFSRSADAPAYKQGQNQLYNELNLGRREEYDVLDKRRGRDPEMGGKPRRKNPQEGLYNELQKDKMAEAYSEIGMKGERRRGKGHDGLYQGLSTATKDTYDALHMQALPPR
- % MJ cell lysis E:T = 0.5:1 (LDH assay, CAR T cells) [5]: 24.6%

B5: AS57911bbz CAR (other)
chain: DIQMTQSPSSLSASVGDRVTITCRASQSVSSAVAWYQQKPGKAPKLLIYSASSLYSGVPSRFSGSRSGTDFTLTISSLQPEDFATYYCQQSHALITFGQGTKVEIKGGGGSGGGGSGGGGSEVQLVESGGGLVQPGGSLRLSCAASGFNISSSYIHWVRQAPGKGLEWVAYISSYYSYTYYADSVKGRFTISADTSKNTAYLQMNSLRAEDTAVYYCARGYPYGMDYWGQGTLVTVSSTTTPAPRPPTPAPTIASQPLSLRPEACRPAAGGAVHTRGLDFACDIYIWAPLAGTCGVLLLSLVITLYCKRGRKKLLYIFKQPFMRPVQTTQEEDGCSCRFPEEEEGGCELRVKFSRSADAPAYKQGQNQLYNELNLGRREEYDVLDKRRGRDPEMGGKPRRKNPQEGLYNELQKDKMAEAYSEIGMKGERRRGKGHDGLYQGLSTATKDTYDALHMQALPPR
- % MJ cell lysis E:T = 0.5:1 (LDH assay, CAR T cells) [5]: 43.9%

B6: AS57659bbz CAR (other)
chain: DIQMTQSPSSLSASVGDRVTITCRASQSVSSAVAWYQQKPGKAPKLLIYSASSLYSGVPSRFSGSRSGTDFTLTISSLQPEDFATYYCQQPYYLITFGQGTKVEIKGGGGSGGGGSGGGGSEVQLVESGGGLVQPGGSLRLSCAASGFNIYSYYIHWVRQAPGKGLEWVASIYSSYSSTYYADSVKGRFTISADTSKNTAYLQMNSLRAEDTAVYYCARSWFSYPGLDYWGQGTLVTVSSTTTPAPRPPTPAPTIASQPLSLRPEACRPAAGGAVHTRGLDFACDIYIWAPLAGTCGVLLLSLVITLYCKRGRKKLLYIFKQPFMRPVQTTQEEDGCSCRFPEEEEGGCELRVKFSRSADAPAYKQGQNQLYNELNLGRREEYDVLDKRRGRDPEMGGKPRRKNPQEGLYNELQKDKMAEAYSEIGMKGERRRGKGHDGLYQGLSTATKDTYDALHMQALPPR
- % MJ cell lysis E:T = 0.5:1 (LDH assay, CAR T cells) [5]: 42%

B7: AS48463VH4bbz CAR (other)
chain: EVQLLESGGGLVQPGGSLRLSCAASGFTFANSDMGWYRQAPGKGCELVSIISSHGGTTYYVDSVKGRFTISRDNSKNTLYLQMNSLRAEDTAVYYCVADPRSNCRGGYCCGYWGQGTLVTVSSTTTPAPRPPTPAPTIASQPLSLRPEACRPAAGGAVHTRGLDFACDIYIWAPLAGTCGVLLLSLVITLYCKRGRKKLLYIFKQPFMRPVQTTQEEDGCSCRFPEEEEGGCELRVKFSRSADAPAYKQGQNQLYNELNLGRREEYDVLDKRRGRDPEMGGKPRRKNPQEGLYNELQKDKMAEAYSEIGMKGERRRGKGHDGLYQGLSTATKDTYDALHMQALPPR
- % H9 cell lysis E:T = 2:1 (LDH assay, CAR T cells) [2]: 64%
- % MJ cell lysis E:T = 1:1 (LDH assay, CAR T cells) [2]: 67%

B8: AS47863bbz CAR (other)
chain: QVQLEESGGGSVQAGETLRLSCTASGSTFGDSDMGWYRQAPGNACELVSIISSDGRTYYVDSVKGRFTISQDNAVSTVYLQMNSLKPEDTGVYYCAADLRQYCRDGRCCGYWGQGTQVTVSSTTTPAPRPPTPAPTIASQPLSLRPEACRPAAGGAVHTRGLDFACDIYIWAPLAGTCGVLLLSLVITLYCKRGRKKLLYIFKQPFMRPVQTTQEEDGCSCRFPEEEEGGCELRVKFSRSADAPAYKQGQNQLYNELNLGRREEYDVLDKRRGRDPEMGGKPRRKNPQEGLYNELQKDKMAEAYSEIGMKGERRRGKGHDGLYQGLSTATKDTYDALHMQALPPR
- % MJ cell lysis E:T = 0.5:1 (LDH assay, CAR T cells) [5]: 65%

B9: AS48433bbz CAR (other)
chain: B8 chain with V2I, E5V, K86N, Q101L, Y102N
- % MJ cell lysis E:T = 0.5:1 (LDH assay, CAR T cells) [5]: 50.5%

— patent US20220144960A1 (NANJING LEGEND BIOTECH, published 2022)
